Reference: US8148119B2, “Hydroxylase gene and use thereof” (Microbiopharm Japan Co., Ltd., priority 2006, dated 2012)
“Also recorded” adds a separate entry of the source. Like-named read-outs stand apart in the source and are kept apart here.

What was measured:
[1] = cited from earlier work
[2] = cited from earlier work; remark: listed apart in the source
[3] = VD3 conversion in reconstituted system (cell-free extract or purified VDH plus redox partner); type: biochemical
VDH = target: T1, VDH (Pseudonocardia autotrophica, UniProt C4B644); assay: Reduced-CO difference spectral analysis, VDH expression in Escherichia coli BL21(DE3) transformants
T1 construct: there was no mutation of the VDH gene and the VDH gene was inserted in the designated site; made in house; host or cells: Escherichia coli BL21(DE3), cell-free extract
T1 sequence (C4B644 2-403): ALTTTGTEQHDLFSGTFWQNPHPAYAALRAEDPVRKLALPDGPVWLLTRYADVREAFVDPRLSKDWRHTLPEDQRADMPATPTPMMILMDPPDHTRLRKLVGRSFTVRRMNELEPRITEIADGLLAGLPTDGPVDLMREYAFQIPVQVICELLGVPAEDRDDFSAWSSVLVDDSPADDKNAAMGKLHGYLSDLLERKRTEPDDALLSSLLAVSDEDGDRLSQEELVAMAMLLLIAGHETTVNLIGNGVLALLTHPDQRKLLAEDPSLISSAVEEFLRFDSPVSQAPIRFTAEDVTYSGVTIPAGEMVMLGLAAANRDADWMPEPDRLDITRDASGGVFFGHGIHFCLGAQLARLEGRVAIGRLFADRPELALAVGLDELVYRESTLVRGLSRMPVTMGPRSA
Procedure: First, the cell suspension obtained by the method previously described was subjected to cell disruption at 4° C. using 0.1 mm glass beads by a cell disruptor, Multi-beads shocker (manufactured by Yasui Kikai Corporation). In the cell disruption, ten cycles of 30-second shaking at 2500 rpm and a 30-second break were conducted. The cell-disrupted solution was centrifuged at 12000 rpm for 10 minutes to thereby obtain a cell-free extract. 700 μl of the cell-free extract was transferred into each of two test tubes with caps and carbon monoxide was purged into one of the tubes. Then, a small amount of sodium hydrosulfite was added to the cell-free extract in both of the tubes. Taking the absorption spectrum at from 400 nm to 500 nm of the sample without the purge of carbon monoxide as the baseline level, the absorption spectrum at from 400 to 500 nm of the sample purged with carbon monoxide was scanned using a spectrophotometer (U-3210 SpectrophotoMeter manufactured by HITACHI, Ltd.).
First, the cell suspension of transformed Escherichia coli BL21(DE3)/pVDH-thcCD obtained by the method previously described was subjected to cell disruption at 4° C. using 0.1 mm glass beads by a cell disruptor, Multi-beads shocker (manufactured by Yasui Kikai Corporation). In the cell disruption, ten cycles of 30-second shaking at 2500 rpm and a 30-second break were conducted. […]

B1: Human CYP27A1: human cytochrome P450 known to have hydroxylation activity at 25-position of vitamin D3 (protein, UniProt Q02318 34-531, looked up)
Sterol 26-hydroxylase, …: ALPSDKATGAPGAGPGVRRRQRSLEEIPRLGQLRFFFQLFVQGYALQLHQLQVLYKAKYGPMWMSYLGPQMHVNLASAPLLEQVMRQEGKYPVRNDMELWKEHRDQHDLTYGPFTTEGHHWYQLRQALNQRLLKPAEAALYTDAFNEVIDDFMTRLDQLRAESASGNQVSDMAQLFYYFALEAICYILFEKRIGCLQRSIPEDTVTFVRSIGLMFQNSLYATFLPKWTRPVLPFWKRYLDGWNAIFSFGKKLIDEKLEDMEAQLQAAGPDGIQVSGYLHFLLASGQLSPREAMGSLPELLMAGVDTTSNTLTWALYHLSKDPEIQEALHEEVVGVVPAGQVPQHKDFAHMPLLKAVLKETLRLYPVVPTNSRIIEKEIEVDGFLFPKNTQFVFCHYVVSRDPTAFSEPESFQPHRWLRNSQPATPRIQHPFGSVPFGYGVRACLGRRIAELEMQLLLARLIQKYKVVLAPETGELKSVARIVLVPNKKVGLQFLQRQC
Question: Which results are given for B1?
Answer: Km ([1]; literature values (Sawada et al. 2004), read-out: Km for VD3): 3.2 µM; Vmax for VD3 ([1]; literature values): 270 mmol/min/mol of P450; Km ([2]; literature values (Sawada et al.; Uchida et al.), read-out: Km for 25-OH VD3): 3.5 µM; Vmax for 25-OH VD3 ([2]; literature values): 21 mmol/min/mol of P450

B2: VDH: hydroxylase of vitamin D or the like from Pseudonocardia autotrophica, cytochrome P450, amino acid sequence ID No. 2 (protein, listed as Pseudonocardia autotrophica)
chain: MALTTTGTEQHDLFSGTFWQNPHPAYAALRAEDPVRKLALPDGPVWLLTRYADVREAFVDPRLSKDWRHTLPEDQRADMPATPTPMMILMDPPDHTRLRKLVGRSFTVRRMNELEPRITEIADGLLAGLPTDGPVDLMREYAFQIPVQVICELLGVPAEDRDDFSAWSSVLVDDSPADDKNAAMGKLHGYLSDLLERKRTEPDDALLSSLLAVSDEDGDRLSQEELVAMAMLLLIAGHETTVNLIGNGVLALLTHPDQRKLLAEDPSLISSAVEEFLRFDSPVSQAPIRFTAEDVTYSGVTIPAGEMVMLGLAAANRDADWMPEPDRLDITRDASGGVFFGHGIHFCLGAQLARLEGRVAIGRLFADRPELALAVGLDELVYRESTLVRGLSRMPVTMGPRSA
Question: For B2, which “Hydroxides of VD3 detected by HPLC” value ([3]; ferredoxin and ferredoxin reductase derived from spinach, 10 μM VD3, 30° C.) is on record?
Answer: Its value is “a reaction proceeds; also recorded: converting VD3 to HVD, DHVD and THVD”.

Question: What about the “Reaction in reconstituted system with putidaredoxin and putidaredoxin reductase” value ([3]; redox partner derived from Pseudomonas putida) of the same molecule?
Answer: Its value is “electron transfer reaction did not proceed”.

Question: What about the “Estimated concentration of VDH per culture” value (VDH; Escherichia coli BL21(DE3)/pVDH-camAB) of the same molecule?
Answer: Its value is 113 nM.

Question: What about the “VDH expression per culture fluid” value (VDH; Escherichia coli BL21(DE3)/pVDH-thcCD) of the same molecule?
Answer: Its value is 258 nM.

B3: P450SU-1: cytochrome P450 derived from actinomycete Streptomyces griseolus ATCC 11796, reported to hydroxylate vitamin D3 (protein, UniProt P18326 2-406, looked up)
Vitamin D3 dihydroxylase: TDTATTPQTTDAPAFPSNRSCPYQLPDGYAQLRDTPGPLHRVTLYDGRQAWVVTKHEAARKLLGDPRLSSNRTDDNFPATSPRFEAVRESPQAFIGLDPPEHGTRRRMTISEFTVKRIKGMRPEVEEVVHGFLDEMLAAGPTADLVSQFALPVPSMVICRLLGVPYADHEFFQDASKRLVQSTDAQSALTARNDLAGYLDGLITQFQTEPGAGLVGALVADQLANGEIDREELISTAMLLLIAGHETTASMTSLSVITLLDHPEQYAALRADRSLVPGAVEELLRYLAIADIAGGRVATADIEVEGHLIRAGEGVIVVNSIANRDGTVYEDPDALDIHRSARHHLAFGFGVHQCLGQNLARLELEVILNALMDRVPTLRLAVPVEQLVLRPGTTIQGVNELPVTW
Question: With B3 as the molecule, how does the “Hydroxylation of vitamin D3 to 25-hydroxy vitamin D3 and of 25-hydroxy vitamin D3 to 1α,25-hydroxy vitamin D3” value ([1]; reported by Sawada et al. 2004) read?
Answer: Its value is “weak activity”.
